Data: patent US20100202967A1 (BRACCO IMAGING, published 2010)
Bridge positions count the residues as written; N and C are the ends. Square brackets hold non-standard residues; d marks the D form. * marks the point of attachment. αGalNAc = CC(=O)N[C@@H]1[C@@H](O)[C@@H](O)[C@@H](CO)O[C@@H]1*; Hyp = O=C(O)[C@@H]1C[C@@H](O)CN1; Cha = N[C@@H](CC1CCCCC1)C(=O)O; CF5 = 5-carboxyfluorescein; AEEA = NCCOCCOCC(=O)O

T1: fibrin
T1 chain 1: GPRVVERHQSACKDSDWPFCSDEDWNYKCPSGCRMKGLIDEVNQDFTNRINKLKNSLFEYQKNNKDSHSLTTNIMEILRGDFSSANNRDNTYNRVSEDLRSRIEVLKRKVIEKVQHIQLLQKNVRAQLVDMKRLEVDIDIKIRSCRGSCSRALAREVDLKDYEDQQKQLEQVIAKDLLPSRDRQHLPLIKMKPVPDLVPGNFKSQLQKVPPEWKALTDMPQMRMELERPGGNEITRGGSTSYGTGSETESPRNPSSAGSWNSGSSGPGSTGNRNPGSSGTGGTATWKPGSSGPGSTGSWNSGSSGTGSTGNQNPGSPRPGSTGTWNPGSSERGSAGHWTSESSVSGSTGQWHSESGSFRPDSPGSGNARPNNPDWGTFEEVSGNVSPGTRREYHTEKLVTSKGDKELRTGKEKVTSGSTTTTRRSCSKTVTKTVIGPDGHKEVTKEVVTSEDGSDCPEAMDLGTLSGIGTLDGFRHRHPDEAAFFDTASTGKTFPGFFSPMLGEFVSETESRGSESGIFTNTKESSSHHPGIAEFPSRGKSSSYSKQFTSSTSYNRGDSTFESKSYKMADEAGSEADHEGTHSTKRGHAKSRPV
T1 chain 2: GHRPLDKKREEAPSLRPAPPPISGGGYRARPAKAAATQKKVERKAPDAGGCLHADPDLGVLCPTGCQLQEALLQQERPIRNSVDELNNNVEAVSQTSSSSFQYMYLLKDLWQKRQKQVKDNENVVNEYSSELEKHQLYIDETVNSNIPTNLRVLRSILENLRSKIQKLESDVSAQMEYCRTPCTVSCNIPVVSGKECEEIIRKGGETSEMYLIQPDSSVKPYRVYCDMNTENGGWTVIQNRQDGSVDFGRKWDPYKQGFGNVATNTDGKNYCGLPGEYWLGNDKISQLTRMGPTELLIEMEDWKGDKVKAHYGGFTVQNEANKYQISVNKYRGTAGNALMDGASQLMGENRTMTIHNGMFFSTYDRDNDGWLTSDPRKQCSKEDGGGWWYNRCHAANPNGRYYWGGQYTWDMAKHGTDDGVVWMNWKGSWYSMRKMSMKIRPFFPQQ
T1 chain 3: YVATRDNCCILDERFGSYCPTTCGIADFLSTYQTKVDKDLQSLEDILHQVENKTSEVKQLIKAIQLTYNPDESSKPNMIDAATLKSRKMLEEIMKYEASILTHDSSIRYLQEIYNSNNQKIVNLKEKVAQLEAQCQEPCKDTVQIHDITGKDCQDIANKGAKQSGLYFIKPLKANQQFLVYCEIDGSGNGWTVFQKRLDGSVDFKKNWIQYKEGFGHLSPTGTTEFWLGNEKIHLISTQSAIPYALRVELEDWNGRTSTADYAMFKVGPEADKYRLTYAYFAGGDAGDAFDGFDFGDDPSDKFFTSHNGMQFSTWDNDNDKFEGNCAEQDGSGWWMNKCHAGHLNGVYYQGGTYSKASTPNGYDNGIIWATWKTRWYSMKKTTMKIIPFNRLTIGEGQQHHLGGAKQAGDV

B1: Ac-WQPC*PAESWTFC*WDPGGGK-NH2 (peptide)
peptide: Ac-WQPCPAESWTFCWDPGGGK-NH2
modifications: disulfide 4-12
SMILES: CC(=O)N[C@@H](Cc1c[nH]c2ccccc12)C(=O)N[C@@H](CCC(N)=O)C(=O)N1CCC[C@H]1C(=O)N[C@H]1CSSC[C@@H](C(=O)N[C@@H](Cc2c[nH]c3ccccc23)C(=O)N[C@@H](CC(=O)O)C(=O)N2CCC[C@H]2C(=O)NCC(=O)NCC(=O)NCC(=O)N[C@@H](CCCCN)C(N)=O)NC(=O)[C@H](Cc2ccccc2)NC(=O)[C@H]([C@@H](C)O)NC(=O)[C@H](Cc2c[nH]c3ccccc23)NC(=O)[C@H](CO)NC(=O)[C@H](CCC(=O)O)NC(=O)[C@H](C)NC(=O)[C@@H]2CCCN2C1=O
B2: Ac-S(Galnac)-JWQPC*PWESWTFC*WDPGGGK-NH2 (peptide)
peptide: Ac-S(αGalNAc)[AEEA]WQPCPWESWTFCWDPGGGK-NH2
modifications: disulfide 6-14
SMILES: CC(=O)N[C@H]1[C@@H](OC[C@H](NC(C)=O)C(=O)NCCOCCOCC(=O)N[C@@H](Cc2c[nH]c3ccccc23)C(=O)N[C@@H](CCC(N)=O)C(=O)N2CCC[C@H]2C(=O)N[C@H]2CSSC[C@@H](C(=O)N[C@@H](Cc3c[nH]c4ccccc34)C(=O)N[C@@H](CC(=O)O)C(=O)N3CCC[C@H]3C(=O)NCC(=O)NCC(=O)NCC(=O)N[C@@H](CCCCN)C(N)=O)NC(=O)[C@H](Cc3ccccc3)NC(=O)[C@H]([C@@H](C)O)NC(=O)[C@H](Cc3c[nH]c4ccccc34)NC(=O)[C@H](CO)NC(=O)[C@H](CCC(=O)O)NC(=O)[C@H](Cc3c[nH]c4ccccc34)NC(=O)[C@@H]3CCCN3C2=O)O[C@H](CO)[C@H](O)[C@@H]1O
B3: Ac-RRGGWQPC*PWESWTFC*WDPGGGK-NH2 (peptide)
peptide: Ac-RRGGWQPCPWESWTFCWDPGGGK-NH2
modifications: disulfide 8-16
SMILES: CC(=O)N[C@@H](CCCNC(=N)N)C(=O)N[C@@H](CCCNC(=N)N)C(=O)NCC(=O)NCC(=O)N[C@@H](Cc1c[nH]c2ccccc12)C(=O)N[C@@H](CCC(N)=O)C(=O)N1CCC[C@H]1C(=O)N[C@H]1CSSC[C@@H](C(=O)N[C@@H](Cc2c[nH]c3ccccc23)C(=O)N[C@@H](CC(=O)O)C(=O)N2CCC[C@H]2C(=O)NCC(=O)NCC(=O)NCC(=O)N[C@@H](CCCCN)C(N)=O)NC(=O)[C@H](Cc2ccccc2)NC(=O)[C@H]([C@@H](C)O)NC(=O)[C@H](Cc2c[nH]c3ccccc23)NC(=O)[C@H](CO)NC(=O)[C@H](CCC(=O)O)NC(=O)[C@H](Cc2c[nH]c3ccccc23)NC(=O)[C@@H]2CCCN2C1=O

Target: T1, fibrin
Experiment: fluorescence polarization, direct binding (n = 2)

Binder | Kd
Ac-SGSGSGSGWQPCPAESWTFCWDPGGGK(CF5)-NH2 (disulfide 12-20) [Ac-SGSGSGSGWQPC*PAESWTFC*WDPGGGK(CF5)-NH2] | 530 nM
Ac-GWQPCPWESWTFCWDPGGGK(CF5)-NH2 (disulfide 5-13) [Ac-GWQPC*PWESWTFC*WDPGGGK(CF5)-NH2] | 230 nM
Ac-KGKGKGWQPCPWESWTFCWDPGGGK(CF5)-NH2 (disulfide 10-18) [Ac-KGKGKGWQPC*PWESWTFC*WDPGGGK(CF5)-NH2] | 760 nM
Ac-SGSG[AEEA]WQPCPWESWTFCWDPGGGK(CF5)-NH2 (disulfide 9-17) [Ac-SGSGJWQPC*PWESWTFC*WDPGGGK(CF5)-NH2] | 450 nM
Ac-RRGGWQPCPAESWTFCWDPGGGK(CF5)-NH2 (disulfide 8-16) [Ac-RRGGWQPC*PAESWTFC*WDPGGGK(CF5)-NH2] | 220 nM
Ac-RWQPCPAESWT[Cha]CWDPGGGK(CF5)-NH2 (disulfide 5-13) [Ac-RWQPC*PAESWT-Cha-C*WDPGGGK(CF5)-NH2] | 80 nM
H-RGWQPCPWESWTFCWDPGGGK(CF5)-NH2 (disulfide 6-14) [RGWQPC*PWESWTFC*WDPGGGK(CF5)-NH2] | 280 nM
Ac-GPPGWQPCPAESWTFCWDPGGGK(CF5)-NH2 (disulfide 8-16) [Ac-GPPGWQPC*PAESWTFC*WDPGGGK(CF5)-NH2] | 310 nM
Ac-KKGWQPCPWESWTFCWDPGGGK(CF5)-NH2 (disulfide 7-15) [Ac-KKGWQPC*PWESWTFC*WDPGGGK(CF5)-NH2] | 710 nM
Ac-WQPCPAESWT[Cha]CWDPGGGK(CF5)-NH2 (disulfide 4-12) [Ac-WQPC*PAESWT-Cha-C*WDPGGGK(CF5)-NH2] | 170 nM
Ac-SGSGSGSGWQPCPWESWTFCWDPGGGK(CF5)-NH2 (disulfide 12-20) [Ac-SGSGSGSGWQPC*PWESWTFC*WDPGGGK(CF5)-NH2] | 470 nM
Ac-GGRGWQPCPWESWTFCWDPGGGK(CF5)-NH2 (disulfide 8-16) [Ac-GGRGWQPC*PWESWTFC*WDPGGGK(CF5)-NH2] | 290 nM
Ac-SGSG[AEEA]WQPCPAESWTFCWDPGGGK(CF5)-NH2 (disulfide 9-17) [Ac-SGSGJWQPC*PAESWTFC*WDPGGGK(CF5)-NH2] | 570 nM
Ac-S(αGalNAc)WQPCPWESWTFCWDPGGGK(CF5)-NH2 (disulfide 5-13) [Ac-S(Galnac)-WQPC*PWESWTFC*WDPGGGK(CF5)-NH2] | 500 nM
Ac-GPPGWQPCPWESWTFCWDPGGGK(CF5)-NH2 (disulfide 8-16) [Ac-GPPGWQPC*PWESWTFC*WDPGGGK(CF5)-NH2] | 250 nM
Ac-GGRGWQPCPAESWTFCWDPGGGK(CF5)-NH2 (disulfide 8-16) [Ac-GGRGWQPC*PAESWTFC*WDPGGGK(CF5)-NH2] | 520 nM

Target: T1, fibrin
Experiment: competition fluorescence polarization assay (n = 2)

Binder | Rel IC50
Ac-GGRGWQPCPWESWTFCWDPGGGK-NH2 (disulfide 8-16) [Ac-GGRGWQPC*PWESWTFC*WDPGGGK-NH2] | 0.37 ratio to Ac-Seq000-GGGK-NH2
Ac-WQPC[Hyp]WESWTFCWDPGGGK-NH2 (disulfide 4-12) [Ac-WQPC*-Hypt4-WESWTFC*WDPGGGK-NH2] | 0.55 ratio to Ac-Seq000-GGGK-NH2
Ac-KKGWQPCPWESWTFCWDPGGGK-NH2 (disulfide 7-15) [Ac-KKGWQPC*PWESWTFC*WDPGGGK-NH2] | 0.357 ratio to Ac-Seq000-GGGK-NH2
Ac-KGKGKGWQPCPWESWTFCWDPGGGK-NH2 (disulfide 10-18) [Ac-KGKGKGWQPC*PWESWTFC*WDPGGGK-NH2] | 0.595 ratio to Ac-Seq000-GGGK-NH2
Ac-GPPGWQPCPWESWTFCWDPGGGK-NH2 (disulfide 8-16) [Ac-GPPGWQPC*PWESWTFC*WDPGGGK-NH2] | 0.235 ratio to Ac-Seq000-GGGK-NH2
B1 | 0.875 ratio to Ac-Seq000-GGGK-NH2
Ac-SGSG[AEEA]WQPCPWESWTFCWDPGGGK-NH2 (disulfide 9-17) [Ac-SGSGJWQPC*PWESWTFC*WDPGGGK-NH2] | 0.714 ratio to Ac-Seq000-GGGK-NH2
B2 | 1.15 ratio to Ac-Seq000-GGGK-NH2
B3 | 0.125 ratio to Ac-Seq000-GGGK-NH2
Ac-SGSGSGSGWQPCPWESWTFCWDPGGGK-NH2 (disulfide 12-20) [Ac-SGSGSGSGWQPC*PWESWTFC*WDPGGGK-NH2] | 0.527 ratio to Ac-Seq000-GGGK-NH2
Ac-S(αGalNAc)WQPCPWESWTFCWDPGGGK-NH2 (disulfide 5-13) [Ac-S(Galnac)-WQPC*PWESWTFC*WDPGGGK-NH2] | 0.559 ratio to Ac-Seq000-GGGK-NH2
H-RWQPCPWESWTFCWDPGGGK-NH2 (disulfide 5-13) [RWQPC*PWESWTFC*WDPGGGK-NH2] | 0.47 ratio to Ac-Seq000-GGGK-NH2
H-RGWQPCPWESWTFCWDPGGGK-NH2 (disulfide 6-14) [RGWQPC*PWESWTFC*WDPGGGK-NH2] | 0.511 ratio to Ac-Seq000-GGGK-NH2
